The source of these data is article PMC7692546.

pKi: −log10 of the molar value.

For experiment [1], the target named is F. hepatica cathepsin L3 (Fasciola hepatica).
The target is the same in experiment [2]. As to the kind of experiment: enzyme inhibition (fluorogenic peptide substrate); KT inhibitor (2 μM) incubated with each protease in 100 μl reaction buffer for 15 min at 37 °C, then fluorogenic substrate; inhibition constants by the Morrison equation for tight-binding inhibition.
Experiment [3] concerns the target Bovine trypsin (bovine).
Experiment [4] addresses Bovine trypsin (bovine). As to the kind of experiment: enzyme inhibition (fluorogenic peptide substrate); KT inhibitor (2 μM) incubated with each protease in 100 μl reaction buffer for 15 min at 37 °C, then fluorogenic substrate; inhibition constants by the Morrison equation for tight-binding inhibition.
Experiment [5] addresses F. hepatica cathepsin L1 (Fasciola hepatica). The description is as above.
The target in experiment [6] is F. hepatica cathepsin L2 (Fasciola hepatica). The experiment is described as above.
Experiment [7] addresses Human cathepsin K (human) (UniProt P43235). Described as above.
Experiment [8] has as its target Human cathepsin L (human). The experiment is described as above.

Human cathepsin K (human), sequence (P43235 115-329): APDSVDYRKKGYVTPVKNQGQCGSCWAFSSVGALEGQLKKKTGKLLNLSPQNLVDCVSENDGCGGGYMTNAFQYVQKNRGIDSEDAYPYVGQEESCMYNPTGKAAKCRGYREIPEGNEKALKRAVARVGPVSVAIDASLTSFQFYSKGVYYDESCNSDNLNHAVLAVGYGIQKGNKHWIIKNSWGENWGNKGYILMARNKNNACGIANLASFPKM

For “Recombinant FhKT1.1 (Fasciola hepatica Kunitz-type inhibitor 1.1) (natural protein)”, the reduction of FhCL3 activity at 2 μM inhibitor (fluorogenic substrate) in experiment [1] worked out at 93.1%. This substance showed a pKi in experiment [2] of 8.74.

On to rFhKT1.1Leu^15/Arg^15 (natural protein), for which the pKi in experiment [2] was 8.44.

The substance “Recombinant FhKT1.3 (Fasciola hepatica Kunitz-type inhibitor 1.3) (natural protein)” came in with a reduction in trypsin activity at 2 μM inhibitor (fluorogenic substrate) in experiment [3] of 99.2%. Besides, the pKi in experiment [4] was 8.74; in experiment [5] it was 9.22; in experiment [6], 7.97; in experiment [2] it was 8.49; in experiment [7], 8.26; in experiment [8] it was 8.59.

Take rFhKT1.1Arg^19/Ala^19 (natural protein): the negative logarithm of the Ki (pKi) is 8.38 in experiment [5]; 7.46 in experiment [6]; 7.48 in experiment [2]; 7.73 in experiment [7]; 9.52 in experiment [8].
